The text below walks through data of PMC7313415 (Journal of immunology (Baltimore, Md. : 1950), 2020).

What all share (test): SPR
In general terms: In SPR one partner is held on a chip, and binding of the other changes the refractive index at the surface.

For test [1], the target named is Biotin-labeled SUMO-fusion mouse TRIM14 (residues 247-440) (mouse) (UniProt Q8BVW3).
The target of test [2] is T1, full-length human TBK1 (human, UniProt Q9UHD2 1-729).
T1 sequence (looked up): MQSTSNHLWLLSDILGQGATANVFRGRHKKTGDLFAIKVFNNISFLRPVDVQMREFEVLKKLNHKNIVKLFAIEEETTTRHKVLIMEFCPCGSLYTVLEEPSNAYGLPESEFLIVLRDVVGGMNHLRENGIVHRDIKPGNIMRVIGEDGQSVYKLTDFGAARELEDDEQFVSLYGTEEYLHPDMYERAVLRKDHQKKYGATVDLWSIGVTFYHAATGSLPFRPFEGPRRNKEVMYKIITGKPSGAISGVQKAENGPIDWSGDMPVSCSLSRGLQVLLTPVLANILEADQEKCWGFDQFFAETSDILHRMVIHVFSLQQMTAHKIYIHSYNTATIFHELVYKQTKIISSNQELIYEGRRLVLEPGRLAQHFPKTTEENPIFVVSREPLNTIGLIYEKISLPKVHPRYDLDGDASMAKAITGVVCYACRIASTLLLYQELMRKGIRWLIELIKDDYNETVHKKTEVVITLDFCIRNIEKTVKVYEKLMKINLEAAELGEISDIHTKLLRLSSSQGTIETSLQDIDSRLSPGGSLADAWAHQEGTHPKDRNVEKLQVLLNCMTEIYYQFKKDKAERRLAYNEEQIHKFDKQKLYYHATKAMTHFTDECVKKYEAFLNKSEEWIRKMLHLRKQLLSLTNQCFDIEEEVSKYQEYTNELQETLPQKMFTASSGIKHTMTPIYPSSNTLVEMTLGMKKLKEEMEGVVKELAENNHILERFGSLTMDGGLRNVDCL

Test [3] deals with human cGAS (residues 157-522) (human, UniProt Q8N884 157-522).
Sequence of human cGAS (residues 157-522) (Q8N884 157-522): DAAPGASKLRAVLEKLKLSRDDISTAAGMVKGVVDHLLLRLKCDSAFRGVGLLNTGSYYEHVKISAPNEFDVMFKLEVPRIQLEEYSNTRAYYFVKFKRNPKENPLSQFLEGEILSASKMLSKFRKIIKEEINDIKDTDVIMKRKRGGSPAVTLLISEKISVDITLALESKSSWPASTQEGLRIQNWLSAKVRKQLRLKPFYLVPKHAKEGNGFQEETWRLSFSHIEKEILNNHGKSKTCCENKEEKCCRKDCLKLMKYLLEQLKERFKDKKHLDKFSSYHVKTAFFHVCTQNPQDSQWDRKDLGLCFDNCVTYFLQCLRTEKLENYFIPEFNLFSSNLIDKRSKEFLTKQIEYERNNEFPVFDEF

Turning to “human TBK1 (residues 1 to 657) (from UniProt Q9UHD2 1-657) (domain or fragment)”, in test [1], the Kd (usually the equilibrium constant for the complex coming apart) is 42.6 µM.
Still for that read-out and setting: with “mouse TBK1 (residues 1 to 657) (from UniProt Q9WUN2 1-657) (domain or fragment)” the figure was 24.3 µM.

B1: Biotin-labeled SUMO-fusion mouse TRIM14 (residues 247-440) (domain or fragment, UniProt Q8BVW3 247-440, looked up)
chain: ALLKTSPSPERALFLKYARTPTLDPDTMHARLRLSPDGLTVRCSLLGRLGPRPAPRFDALRQVLGRDGFAAGRHYWEVDVQEAGVGWWVGAAYPSLRRRGASAAARLGCNRESWCVKRYDLEYWAFHDGQRSRLRPRRDPHRLGVFLDYEAGILAFYDVAGGMSHLHTFHAAFQEPLYPALRLWEGPISIPRLP
modifications: biotin (Avi tag, labelled by BirA)
As to B1, the values for the Kd in test [2] and in test [3] were 11 µM and 25.8 µM, respectively.
